Laboratory results published in patent US20210395344A1 (TWIST BIOSCIENCE, published 2021).
Positions count from the first letter of the chain named.

B1: SARS-CoV-2 variant 1-2 (antibody, V domains shown)
VH: EVQLLESGGGLVQPGGSLRLSCAASGFTFSSQAMSWVRQAPGKGLEWVSAISGSGGGTYYADSVKGRFTISRDNSKNTLYLQMNSLRAEDTAVYYCAKDRRFGEFDPWGQGTLVTVSS
VL: QSALTQPASVSGSPGQSITISCTGTSSGVGSYNLVSWYQQHPGKAPKLMIYEGIKRPSGVSNRFSGSKSGNTASLTISGLQAEDEADYYCCSYAGSSSFVVFGGGTKLTVL
B2: SARS-CoV-2 variant 1-30 (antibody, V domains shown)
VH: EVQLLESGGGLVQPGGSLRLSCAASGFTFSSYAMTWVRQAPGKGLEWVSAISGSGGSTFYADSVKGRFTISRDNSKNTLYLQMNSLRAEDTAVYYCTRPPYGDYGDYWGQGTLVTVSS
VL: B1 VL with S27R, G28D, I54T, S97R, S98T, F99P
B3: SARS-CoV-2 variant 1-27 (antibody, V domains shown)
VH: EVQLLESGGGLVQPGGSLRLSCAASGFTFSSYAMTWVRQAPGKGLEWVSAISGSGGGTYYADSVKGRFTISRDNSKNTLYLQMNSLRAEDTAVYYCASSSSWQFDYWGQGTLVTVSS
VL: B1 VL with G28Y, S31H, I54S, K55R, S97Y, S98T, F99H, V100Y
B4: SARS-CoV-2 variant 1-31 (antibody, V domains shown)
VH: B2 VH with T35N
VL: B1 VL with G28D, S31K, I54S, K55Q, S97R, S98T, F99P
B5: SARS-CoV-2 variant 1-33 (antibody, V domains shown)
VH: B2 VH with T35I
VL: B1 VL with G28D, V35L, G53A, I54S, S97R, S98T, F99P
B6: SARS-CoV-2 variant 1-3 (antibody, V domains shown)
VH: B1 VH
VL: B1 VL with T25I, G28D, I54T
B7: SARS-CoV-2 variant 1-5 (antibody, V domains shown)
VH: B1 VH
VL: B1 VL with G53A, I54S, S97Y, S98T, V100A
B8: SARS-CoV-2 variant 1-4 (antibody, V domains shown)
VH: B1 VH
VL: B1 VL with G28D, S31T, I54S, K55Q
B9: SARS-CoV-2 variant 1-32 (antibody, V domains shown)
VH: B2 VH with T35Y
VL: QSALTQPASVSGSPGQSITISCTGTSSDVGGYNLVSWYQQHPGKAPKLMIYEGNKRPSGVSNRFSGSKSGNTASLTISGLQAEDEADYYCCSYAGSSTFPVVFGGGTKLTVL
B10: SARS-CoV-2 variant 1-43 (antibody, V domains shown)
VH: B1 VH with S49T, R100T, R101I, D106Y
VL: QSALTQPASVSGSPGQSITISCTGTSSDIGSYNLVSWYQQHPGKAPKLMIYEGTKRPSGVSNRFSGSKSGNTASLTISGLQAEDEADYYCCSYAGSRTYVFGGGTKLTVL
B11: SARS-CoV-2 variant 1-35 (antibody, V domains shown)
VH: EVQLLESGGGLVQPGGSLRLSCAASGFTFSNYAMSWVRQAPGKGLEWVSDISGSGGSTYYADSVKGRFTISRDNSKNTLYLQMNSLRAEDTAVYYCVKGTIPIFGVIRSAFDYWGQGTLVTVSS
VL: B1 VL with G28D, N33S, I54T, S97Y, F99Y
B12: SARS-CoV-2 variant 1-44 (antibody, V domains shown)
VH: B1 VH with S49T, R101K
VL: B10 VL
B13: SARS-CoV-2 variant 1-20 (antibody, V domains shown)
VH: EVQLLESGGGLVQPGGSLRLSCAASGITFSSYAMSWVRQAPGKGLEWVSGISGSGGSTYYADSVKGRFTISRDNSKNTLYLQMNSLRAEDTAVYYCANHGSGTIFGVVIAKYYFDYWGQGTLVTVSS
VL: B1 VL with G28D, S31H, I54T
B14: SARS-CoV-2 variant 1-41 (antibody, V domains shown)
VH: EVQLLESGGGLVQPGGSLRLSCAASGFTFSSYDMSWVRQAPGKGLEWVSVISGSGGSTYYADSVKGRFTISRDNSKNTLYLQMNSLRAEDTAVYYCAKGPLVGWYFDLWGQGTLVTVSS
VL: B10 VL
B15: SARS-CoV-2 variant 1-49 (antibody, V domains shown)
VH: EVQLLESGGGLVQPGGSLRLSCAASGFTFSSYAMYWVRQAPGKGLEWVSAISGSAGSTYYADSVKGRFTISRDNSKNTLYLQMNSLRAEDTAVYYCARDTNDFWGQGTLVTVSS
VL: B10 VL
B16: SARS-CoV-2 variant 1-45 (antibody, V domains shown)
VH: EVQLLESGGGLVQPGGSLRLSCAASGFTFSSYAMSWVRQAPGKGLEWVSIISGSAGSTYYADSVKGRFTISRDNSKNTLYLQMNSLRAEDTAVYYCARDGYKYCLWGQGTLVTVSS
VL: B10 VL
B17: SARS-CoV-2 variant 1-50 (antibody, V domains shown)
VH: B15 VH with A33D, Y35S, A55G, S57T, D99G, T100P, N101L
VL: B10 VL
B18: SARS-CoV-2 variant 1-39 (antibody, V domains shown)
VH: B2 VH with T35Y, S49T, D103Y
VL: B10 VL
B19: SARS-CoV-2 variant 1-46 (antibody, V domains shown)
VH: EVQLLESGGGLVQPGGSLRLSCAASGFTFTSYAMSWVRQAPGKGLEWVSAISGSGGSTYYADSVKGRFTISRDNSKNTLYLQMNSLRAEDTAVYYCANDTSDFCFGYWIFDPWGQGTLVTVSS
VL: B10 VL
B20: SARS-CoV-2 variant 1-48 (antibody, V domains shown)
VH: B19 VH with T30S, Y32H, S35Y, G55A, N98H, S101K, C104W, F105S, W108C
VL: B10 VL

Biological target: S1-Fc (SARS-CoV-2, UniProt P0DTC2 16-685)
Experiment: phage ELISA

Compared with B1, B2 is higher in “specificity ELISA, fold over background” value: 1.7 fold over background for the first, 5.6 fold over background for the second.

Going from B3 to B4, the “specificity ELISA, fold over background” value rises from 1.3 fold over background to 15.7 fold over background.

Compared with B5, B6 is lower in “specificity ELISA, fold over background” value: 3 fold over background for the first, 1.5 fold over background for the second.

First: B7
Second: B8
The “specificity ELISA, fold over background” value of the first is higher: 1.2 fold over background for the first, 0.9 fold over background for the second.

With B9 the “specificity ELISA, fold over background” value was 4 fold over background.

First: B1
Second: B2
The “specificity ELISA, percent binding relative to Acro S1” value of the first is higher: 95.4% for the first, 33.3% for the second.

Compared with B3, B4 is lower in “specificity ELISA, percent binding relative to Acro S1” value: 84.8% for the first, 51.6% for the second.

Compared with B5, B6 is higher in “specificity ELISA, percent binding relative to Acro S1” value: 42.1% for the first, 91.2% for the second.

Going from B7 to B8, the “specificity ELISA, percent binding relative to Acro S1” value rises from 82.9% to 90.8%.

B9 was tested, and the “specificity ELISA, percent binding relative to Acro S1” value was 35.3%.

Biological target: T1, COVID S1 RBM Fc fusion (Antigen 2) (SARS-CoV-2, UniProt P0DTC2 437-508)
T1 construct: domain: RBM
Experiment: phage ELISA

Compared with B1, B10 is lower in “specificity ELISA, fold over background” value: 1.7 fold over background for the first, 1 fold over background for the second.

First: B2
Second: B3
The “specificity ELISA, fold over background” value of the first is lower: 1.4 fold over background for the first, 1.6 fold over background for the second.

Going from B11 to B4, the “specificity ELISA, fold over background” value falls from 1.6 fold over background to 1.2 fold over background.

Compared with B12, B5 is higher in “specificity ELISA, fold over background” value: 0.8 fold over background for the first, 1 fold over background for the second.

Going from B6 to B13, the “specificity ELISA, fold over background” value falls from 1.5 fold over background to 0.8 fold over background.

Compared with B7, B8 is lower in “specificity ELISA, fold over background” value: 1.4 fold over background for the first, 1.1 fold over background for the second.

Going from B9 to B14, the “specificity ELISA, fold over background” value rises from 1.1 fold over background to 1.2 fold over background.

Compared with B15, B16 is higher in “specificity ELISA, fold over background” value: 0.8 fold over background for the first, 1 fold over background for the second.

Going from B17 to B18, the “specificity ELISA, fold over background” value rises from 0.8 fold over background to 1.3 fold over background.

Compared with B19, B20 is lower in “specificity ELISA, fold over background” value: 0.9 fold over background for the first, 0.8 fold over background for the second.

Compared with B1, B10 is lower in “specificity ELISA, percent binding relative to Acro S1” value: 93.5% for the first, 14.5% for the second.

First: B2
Second: B3
The “specificity ELISA, percent binding relative to Acro S1” value of the first is lower: 8.5% for the first, 109% for the second.

Going from B11 to B4, the “specificity ELISA, percent binding relative to Acro S1” value falls from 7.3% to 3.8%.

Going from B12 to B5, the “specificity ELISA, percent binding relative to Acro S1” value rises from 7.6% to 14.6%.

Going from B6 to B13, the “specificity ELISA, percent binding relative to Acro S1” value falls from 91.9% to 14.5%.

Compared with B7, B8 is higher in “specificity ELISA, percent binding relative to Acro S1” value: 92% for the first, 105% for the second.

Compared with B9, B14 is higher in “specificity ELISA, percent binding relative to Acro S1” value: 9.5% for the first, 26.3% for the second.

First: B15
Second: B16
The “specificity ELISA, percent binding relative to Acro S1” value of the first is higher: 78.8% for the first, 8.3% for the second.

Compared with B17, B18 is higher in “specificity ELISA, percent binding relative to Acro S1” value: 5.9% for the first, 6.7% for the second.

Going from B19 to B20, the “specificity ELISA, percent binding relative to Acro S1” value rises from 19.8% to 30.3%.

Biological target: T2, SARS-CoV-2 S1 (subunit 1) protein (SARS-CoV-2, UniProt P0DTC2 16-685)
T2 construct: also called biotinylated SARS-CoV-2 S1
Experiment: phage ELISA

First: B1
Second: B2
The “screening ELISA (Avg), fold over background” value (“screening ELISA (Avg), fold” below) of the first is lower: 24.2 fold over background for the first, 29.5 fold over background for the second.

First: B3
Second: B4
The “screening ELISA (Avg), fold” value of the first is higher: 27.2 fold over background for the first, 20.7 fold over background for the second.

Going from B5 to B6, the “screening ELISA (Avg), fold” value rises from 17.6 fold over background to 23.9 fold over background.

B7 and B8 are the same in “screening ELISA (Avg), fold” value: 20.6 fold over background for the first, 20.6 fold over background for the second.

First: B9
Second: B14
The “screening ELISA (Avg), fold” value of the first is lower: 17.9 fold over background for the first, 18.1 fold over background for the second.
